Experimental data from US20250155441A1.

Tests used:
[1] = target: α-fetoprotein (AFP-L1), the non-fucosylated variant of AFP that should not react with Lens culinaris agglutinin A (human) (UniProt P02771); assay: Elecsys ECL immunoassay, biotinylated protein 7 nM without pretreatment, antibody 1 µg/mL, ruthenylated anti-rabbit Fc, streptavidin beads (PBS blank 570)
[2] = target: α-fetoprotein (AFP-L1), the non-fucosylated variant of AFP that should not react with Lens culinaris agglutinin A (human) (UniProt P02771); assay: Elecsys ECL immunoassay, biotinylated protein 7 nM without pretreatment, antibody 1 µg/mL, ruthenylated anti-rabbit Fc, streptavidin beads (PBS blank 580)

Sequence of α-fetoprotein (AFP-L1), the non-fucosylated variant of AFP that should not react with Lens culinaris agglutinin A (human) (P02771 19-609 limits assumed, change not shown): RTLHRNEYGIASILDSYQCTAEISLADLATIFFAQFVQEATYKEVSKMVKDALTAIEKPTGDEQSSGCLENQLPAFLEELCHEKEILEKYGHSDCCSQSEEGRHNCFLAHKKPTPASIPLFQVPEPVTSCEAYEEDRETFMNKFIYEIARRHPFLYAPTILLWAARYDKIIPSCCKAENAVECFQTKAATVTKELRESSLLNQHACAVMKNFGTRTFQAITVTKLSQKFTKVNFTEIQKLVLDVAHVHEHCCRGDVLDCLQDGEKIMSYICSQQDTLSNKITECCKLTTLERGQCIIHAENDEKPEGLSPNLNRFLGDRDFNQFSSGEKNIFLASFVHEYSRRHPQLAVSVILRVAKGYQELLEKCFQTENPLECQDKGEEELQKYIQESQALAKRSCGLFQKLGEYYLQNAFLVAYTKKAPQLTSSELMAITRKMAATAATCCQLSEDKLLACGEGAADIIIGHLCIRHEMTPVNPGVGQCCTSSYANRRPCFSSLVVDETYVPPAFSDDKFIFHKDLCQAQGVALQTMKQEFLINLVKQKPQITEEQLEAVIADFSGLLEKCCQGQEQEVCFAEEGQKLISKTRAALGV

Counts [1]	Counts [2]	Binder
724 counts	–	mAb<AFP-L3>rRb-3C5-IgG (antibody, V domains shown) VH: QSVEESGGRLVAPGTPLTLTCTVSGIDLSTYGMGWVRQAPGKGLEYIGIIDSGSTYYANWAKGRFTISKTSTTVDLKMTSLTTEDTATYFCARDRDPSSSGYYFKMWGPGTLVTVSL VL: ALVMTQTPSSVSAAVGGTVTINCQASQSIGSYLAWYQQKPGQPPRLLIYGASNLESGVPSRFKGSGSGTEFTLTISDLECDDAATYYCQTAFYIFSSDNAFGGGTEVVVK
–	771 counts	mAb<AFP-L3>rRb-19B12-IgG (antibody, V domains shown) VH: QSVEESGGRLVAPGTPLTLTCTVSGIDLSTYGMGWVRQAPGKGLEWIGIIGDNGSTYYANWAKGRFTISKTSTTVDLKMTSLTTEDTATYFCARDRDPSSSGYYFKMWGPGTLVTVSL VL: ALVMTQTPSSVSAAVGGTVTINCQASQSISSYLAWYQQKPGQPPKLLIFGASNLESGVPSRFKGSGSGTEFTLTISDLECDDAATYYCQTAFYIFSSDNAFGGGTEVVVK
